Assay: yeast display, Sf9 membrane polyspecificity reagent, FACS + sequencing; frameworks hold sequencing errors
How it was run: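 A nanobody's polyreactivity label depends on the gate it was sorted from. Yeast display cells were stained with 10% biotinylated, detergent-solubilized Sf9 membrane reagent for 1 hour at 4 °C, enriched on streptavidin microbeads and sorted by FACS. The low and high (top ~1%) gates were set on anti-HA fluorescence for expression and streptavidin fluorescence for reagent binding.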

Sequence | polyreactivity (PSR sort gate)
QVQHVESGGGLVQAGGSRRLTCAASGYTFYKYAMGWYRQAPGKERELVAAISSSGGSTYYADSVKGRFTISRDNAKNTGYLHMNSLKPVDTAVYYCAAFVYSNDYDYWGQGTQVTVSS | high polyreactivity
QVQHVESGGGLVQAGRSLRLICAASGRNSKGYAMAWDRQAPGKERELVAAYADSVKGRFTIARDNAKNTVYLQMNSLKPEDTAVYYCNADYDQVSRVGYVYWAYYYWGQGTQVTVSS | low polyreactivity
QVQHVESGGGLVQAGRSLRLSCAASGFTIVQYAMGWYRQAPGKERELVARISPIGGSTYYADSVKGRFTISRDNAKNTVYLQMNSLKPEDTAVYYCNALRGPVKYYYWGQGTQVTVSS | low polyreactivity
QVQHVESGGGLVQAGRSLRLSCAASGLIYPYVMGWYRQAPGKERELVAAISRSGGRTYYADSVKGRFTISRDNAKNTVYLQMNSLKPEDTAVYYCAAKVDVTGYFDYWGQGTQVTVSS | high polyreactivity
QVQHVESGGGLVQAGVSLRLSCAASGFTFGSNAMGRYRPAPGKERELVAAINYSGVRTYYADSVKGRFTISRDNAKNTVYLQMNSLKPEDTAVYYCAKQRSKPNSFDYWGQGTQVTVSS | high polyreactivity
QVQHVESGGGLVQARGSLRLSCAASGSTIKHYGMGWYRHAPGKERELVAAITSGGRTYYADSVKGRFTISRDNAKNTVYLQMNSLKQDDSAGYYCAALRVQQVKSYYYWGQGTQVTVSS | high polyreactivity
QVQHVESGGGLVQEGGSLRVSCAASGSIFGTNDMGWYRQAPGKERELVAAISSSGASTYYADSVKGRFTISRDNAKNTVYLQMNSLKPEDTAVYYCARGYTYQYSSFYYWGQGTQVTVSS | low polyreactivity
QVQHVESGRGLVQAGGSLRLSCAASGFIFRLYAMGWYRQAPGKERELVAAISRGGSTTYADSVKGRFTISRDNAKNTVYLQMYSLKPEDTAVYYCATEGDLVAYLYDYWGQGTQVTVSS | low polyreactivity
QVQHVESGVGLVQAGGSLRLSSAASGRTFSDNAMGWYRQAPGNERELVAAISRSGGRTYYADSVKGRFTISRDNAKNTVYLQMNSLKPEDTAVYYCAAAPSVSGTRLYEYWGQGTQVTVSS | high polyreactivity
QVQHVESRGGLVQAGGSLRLICAASGFILYYYAMGWYRQAPGKVREMVASISRRGGSTYYADSVKGRFTISRDNAKNTVYLQMNSLKPEDTAVYYCAATETTSRRFGYDYWGQGTQVTVSS | high polyreactivity
QVQHVESRGGLVQAGGSLRLICAASGFTFSSYAMGWYRQAPGKERELVASISWRGGIPYYADSVKGRFTISRDNAKNTVDLQMISLKPEDTAVYYCAAVPSYHSTSPFYYWGQGTQVTVSS | high polyreactivity
QVQHVESRGGLVQAGGSLRLSCAASGITLPKYAMGCYRQAPGKERELAAAISRRGGITYYADSVKGRFTISRDNAKNSVYLQMNSQKPEDTAVYYCAADRTDTRGFDYWGQGTQVTVSS | high polyreactivity
QVQHVESRGGLVQARGSLRLSCAASGRIFSPYAMGWYRQAPGKERELVAAITWSGGSTYYADSVKGRFTISRDNAMNTVYLQMNSLKQEDTAVYYCAADFYRRYYAWEYYYWGQGTQVTVSS | high polyreactivity
QVQHVESVGCLVQAAGSLPLSCAASGSTFSSYAMGWYRQAPGKERELVAAISTSGGSTYYADSVKGRFTISRDNAKNTVYLQMNSLKQEDTAVYYCYAGPSYYPFFWPDFEYWVQGTQVTVSS | high polyreactivity
QVQHVESVGGLVQAGGSLPLSGASSGFIFRKNAMGWYRQATGKEREFVAAISRRGGCTYYADSVKGRFTISRDNAKNTVYLQMNSLKPEDTAVYYCNAELYDVGSHEYDYWVQGTQVTVSS | high polyreactivity
QVQHVESVGGLVQAGGSLRLSCAASGFTFYGYAMGWYRHATGKERELVPAISQSGGSTTYADSVKGRFTISRDKAKNTVYVQMNSLKPEDTAVYYCAARYPYYWWRHVYGDVEYDFWGQGTQGTVSS | high polyreactivity

Sequence | polyreactivity (PSR sort gate)
QVQHVESVGGLVQAGGSLRLSCAASGLIFLYNAMGWYRQAPGKVRELVAAITSSGGSTYYADSVKGRLTISRDYAKNTVYLQMNSLKPEDTAVYYCANRYQSYYYSHWGYRYYWGQGTQVTVSS | high polyreactivity
QVQHVESVGGLVQAGGSLRLSCAASGRTFGCYTMGWYRHATGTERELVAGISSSGGSTYYADSVKGRFTISRDNAKNTVYLQMNSLKPEDTAVYYCARETYPHGLYYRPYDYWGQGTQVTVSS | low polyreactivity
QVQHVESVGGLVQARGSLRLSCAASGSIFDLYAMGWYRQAPGKERELVAGISYSGGSTYYADSVKGRFTISRDNAKNTVYLQMNSLKPEETAVYYCATAYYYHGGYYYPYDDYWGQGTQVTVSS | low polyreactivity
QVQHVESVGRLVQAGGSLLLSCAASGSTFWIYAMGWKRQAPVKERELVAAISWRGGRTYYADSVKGRFTISRDNAKNTVYLQMYSLKPEDTGVYYCNAQKRDVSMGYWGLGTQVTVSS | high polyreactivity
QVQHVESVRGLVQAGGSLRLSCDASGIIFYSYAMGWYRQAPGKERELVARISTRGGSTYYADSVKGRFTISRDNAKNTVYLQMNSLKPEDTAVYYCAARYSRYIRFPYDYWGQGTQVTVSS | high polyreactivity
QVQHVETGGGLVQAGGSLRLSCAASGFIFAEYAMGWYRQAPGKETEEVAAITSGGSTSYADSVKGRFTISRDNAKNTVYLQMNSLKPEDTAVYYCAATWYYLYNVWKHWYEYGYWGQGTQVTVSS | low polyreactivity
QVQHVETGGGLVQAGGSLRLSCAASGIFGYNAMGGYRQAPAKERELVAGITKSGARTYYADSVKGRFTISRDNAKNTVYLQMNSLKPEDTAVYYCKAVGKRFYNDDYWGQGTQVTVSS | high polyreactivity
QVQHVQSGGGLVQAGGRHRLSCAASGSTIRYYAMGWYRQAPGTERELVAAISGSGGRTYYADSVKGRFTISRDNAKNTGYLQMNSLKPEDTAVYYCYTRGRRTDNDYWGQGTQLTVSS | high polyreactivity
QVQHVQSGGGLVQAGGSLRLSCAASGRTNPFYAMGWYRQAPGKERELVAAISSSAGRTYYADSVKGRFTISRDNAKNTFYFEMNSLKPEDTAVYYCAARLYGRYRYDYWGQGTQVTVSS | low polyreactivity
QVQIEESGGGLVQERGSLRLSCAAYGRIFDLYAMGWNRQAPGKERELVATISGSGGSTYYADSVKGRFTISRDTAKNTVYLQMNSLKPEDTAVYNCAAVSVSSWYDYWGQGTQVTVSS | low polyreactivity
QVQIVDSGGGLVQAGGRLRLTCAASGSTFYVYTMGWSRQAPGKESELFDRISSGGSTKYADSVKGRFTISRVNANNTVYLQMNILKPEDTAVYYCNADGLYLFGISYGKFLKYGHWGHGTQVTVSS | low polyreactivity
QVQIVDSGGGLVQAGGSLRLSCAASGNIFAWYAMGWYTQAPGQVRELVAAINWSRGSTYYADSVKGRFTISRDNAKNTVYLQMNSLKPEDTAVYYCNAVFQDRTDDYDYWGQGTQVTLSS | low polyreactivity
QVQIVDSGGGVVQAGGILRLSSAASGYTFGSYDMGWYRQEPGKERELVAAISGGGSTNYADSVKGRFTISRDNAKNTVYLQMNCLKPEDTAVYYCAAYPYLYPLRFEEYDHWGQGTQVTVSS | low polyreactivity
QVQIVDSGVGLVQAGGSLRLSCAASGSTFLKNAMGWYRQAPGKERELVAAISYSTTPTYYADSVKGRFTFSRDNAKNTVYLQMNSLKPEDNAVYYCNIASYWGSGFDFWGLGTQVTVSS | low polyreactivity
QVQIVESGAGIVQAGGSLRLSCAASGFIFDIYAMGWYRQAPGKERELVASITWDDGSTYYADSVKGRFTISRDNAKNTVYLQINSLKPEDTAVYYCAADFEAGGYSLDYWGQGTQVTVSS | low polyreactivity
QVQIVESGAGLVQAGGSLRISCAPSGLTFGYYAMGWYRQAPGKERELVAAISSSGVNTYYADSVKGRFTISRDNAKNTVYLQMNSLKPEDTAVYYCNTVPKPWYSWKYAYDYWGHGTQVTVSS | high polyreactivity
